The labels stand for the following.
B1: ZNF649 (parent)
chain: YQAGKPDALTKLEQGEPLWTLEDE
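Note: lentivirally expressed fusions sorted by FACS into six bins by GFP to DsRed ratio, PSI derived from sequencing read proportions per bin multiplied by bin number.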

The variants in this data set derive from B1. Briefly: protein stability index of a GFP-peptide fusion (GPS, HEK-293T) (PSI 1-6); higher = more stable. As to conditions: c terminus: a fixed tail appended.
Regarding YQAGKPDALTKLEQKEPLWTLEDE, the protein stability index was determined as 4.4.

As to YQAGKPDALTKLEQGEPLLTLEDE, the protein stability index was determined as 4.92.

With YQAGKPDALTKLEQGEPLFTLEDE, the protein stability index was determined as 4.86.

YQAGKPDALTKLEQGEPLITLEDE: the protein stability index stood at 5.21.

For YQAGKPDALTKLEQGEPLKTLEDE, the protein stability index is 4.98.

For the variant YQAGKPDALTKLEQGEPLATLEDE, the protein stability index is 5.52.

With YQAGKPDALTKLEQGEPLHTLEDE, the protein stability index was 5.72.

YQAGKPDALTKLEQGEPLDTLEDE: the protein stability index turned out to be 5.31.

YQAGKPDALTKLEQGEPLETLEDE: the protein stability index came out at 5.34.

On to YQAGKPDALTKLEQGEPLCTLEDE, for which the protein stability index came out at 4.86.

Turning to YQAGKPDALTKLEDGEPLWTLEDE, the protein stability index amounted to 4.67.

On to YQAGKPDALTKLERGEPLWTLEDE, for which the protein stability index is 3.8.

With YQAGKPDALTKLEVGEPLWTLEDE, the protein stability index worked out at 4.71.

For the variant YQAGKPDALTKLEWGEPLWTLEDE, the protein stability index is 4.44.

In the case of YQAGKPDALTKLEMGEPLWTLEDE, the protein stability index came to 4.17.

Consider YQAGKPDALTKLEKGEPLWTLEDE, for which the protein stability index was determined as 4.28.

Regarding YQAGKPDALTKLENGEPLWTLEDE, the protein stability index is 4.07.

As to YQAGKPDALTKLEYGEPLWTLEDE, the protein stability index amounted to 3.53.

Regarding YQAGKPDALTKLEIGEPLWTLEDE, the protein stability index came out at 4.44.

YQAGKPDALTKLEGGEPLWTLEDE: the protein stability index is 4.92.

In the case of YQAGKPDALTKLEFGEPLWTLEDE, the protein stability index was found to be 3.89.

For YQAGKPDALTKLESGEPLWTLEDE, the protein stability index came out at 4.13.

For the variant YQAGKPDALTKLEHGEPLWTLEDE, the protein stability index came out at 4.14.

As to YQAGKPDALTKLEPGEPLWTLEDE, the protein stability index worked out at 4.63.

For the variant YQAGKPDALTKLEAGEPLWTLEDE, the protein stability index is 4.11.

As for YQAGKPDALTKLELGEPLWTLEDE, the protein stability index is 4.07.

For the variant YQAGKPDALTKLECGEPLWTLEDE, the protein stability index was 4.66.

As for YQAGKPDALTKLETGEPLWTLEDE, the protein stability index was found to be 4.71.

Consider YQAGKPDALTKLEQGEKLWTLEDE, for which the protein stability index was determined as 3.97.

With YQAGKPDALTKLEQGEWLWTLEDE, the protein stability index stood at 3.36.

On to YQAGKPDALTKLEQGEHLWTLEDE, for which the protein stability index was 4.1.

As for YQAGKPDALTKLEQGELLWTLEDE, the protein stability index came to 3.95.

On to YQAGKPDALTKLEQGECLWTLEDE, for which the protein stability index was determined as 3.46.

YQAGKPDALTKLEQGEMLWTLEDE: the protein stability index was determined as 4.1.

For YQAGKPDALTKLEQGERLWTLEDE, the protein stability index was determined as 3.94.

For YQAGKPDALTKLEQGEQLWTLEDE, the protein stability index is 4.47.

As for YQAGKPDALTKLEQGEFLWTLEDE, the protein stability index was found to be 3.68.

On to YQAGKPDALTKLEQGEGLWTLEDE, for which the protein stability index stood at 3.47.

As for YQAGKPDALTKLEQGEYLWTLEDE, the protein stability index turned out to be 3.23.

Consider YQAGKPDALTKLEQGEILWTLEDE, for which the protein stability index was 3.22.

Take YQAGKPDALTKLEQGENLWTLEDE: the protein stability index was 4.41.

With YQAGKPDALTKLEQGEALWTLEDE, the protein stability index was 4.86.

In the case of YQAGKPDALTKLEQGEELWTLEDE, the protein stability index came to 4.21.

For the variant YQAGKPDALTKLEQGKPLWTLEDE, the protein stability index was determined as 4.49.

With YQAGKPDALTKLEQGWPLWTLEDE, the protein stability index turned out to be 2.49.

Consider YQAGKPDALTKLEQGFPLWTLEDE, for which the protein stability index is 2.

Take YQAGKPDALTKLEQGGPLWTLEDE: the protein stability index worked out at 4.06.

For the variant YQAGKPDALTKLEQGNPLWTLEDE, the protein stability index was 3.73.

As for YQAGKPDALTKLEQGLPLWTLEDE, the protein stability index turned out to be 3.66.

Turning to YQAGKPDALTKLEQGSPLWTLEDE, the protein stability index was determined as 4.38.

For the variant YQAGKPDALTKLEQGQPLWTLEDE, the protein stability index worked out at 3.76.

Turning to YQAGKPDALTKLEQGHPLWTLEDE, the protein stability index stood at 3.32.

As for YQAGKPDALTKLEQGDPLWTLEDE, the protein stability index worked out at 4.94.

With YQAGKPDALTKLEQGIPLWTLEDE, the protein stability index worked out at 2.1.

For YQAGKPDALTKLEQGPPLWTLEDE, the protein stability index was determined as 3.93.

With YQAGKPDALTKLEQGTPLWTLEDE, the protein stability index stood at 3.97.

In the case of YQAGKPDALTKLEQGMPLWTLEDE, the protein stability index was 1.92.

On to YQAGKPDALTKLEQGAPLWTLEDE, for which the protein stability index amounted to 3.93.

YQAGKPDALTKLEQGVPLWTLEDE: the protein stability index was 2.59.

YQAGKPDALTKLEQGYPLWTLEDE: the protein stability index stood at 2.62.

For the variant YQAGKPDALTKTEQGEPLWTLEDE, the protein stability index was found to be 4.22.

Consider YQAGKPDALTKREQGEPLWTLEDE, for which the protein stability index is 4.4.

Turning to YQAGKPDALTKPEQGEPLWTLEDE, the protein stability index was 4.38.

On to YQAGKPDALTKHEQGEPLWTLEDE, for which the protein stability index was 4.73.

For the variant YQAGKPDALTKGEQGEPLWTLEDE, the protein stability index worked out at 4.83.

As for YQAGKPDALTKSEQGEPLWTLEDE, the protein stability index was 4.52.

For YQAGKPDALTKAEQGEPLWTLEDE, the protein stability index was 4.95.

YQAGKPDALTKKEQGEPLWTLEDE: the protein stability index was found to be 4.17.

Consider YQAGKPDALTKYEQGEPLWTLEDE, for which the protein stability index stood at 4.68.

As for YQAGKPDALTKMEQGEPLWTLEDE, the protein stability index turned out to be 4.54.

On to YQAGKPDALTKVEQGEPLWTLEDE, for which the protein stability index worked out at 4.32.

Regarding YQAGKPDALTKWEQGEPLWTLEDE, the protein stability index worked out at 3.75.

In the case of YQAGKPDALTKQEQGEPLWTLEDE, the protein stability index worked out at 4.56.

YQAGKPDALTKIEQGEPLWTLEDE: the protein stability index was 4.56.

In the case of YQAGKPDALTKFEQGEPLWTLEDE, the protein stability index worked out at 4.37.

As to YQAGKPDALTKCEQGEPLWTLEDE, the protein stability index came out at 5.11.

For the variant YQAGKPDALTKNEQGEPLWTLEDE, the protein stability index is 4.78.

As for YQAGKPDALTKLEQGEPKWTLEDE, the protein stability index amounted to 5.03.

Turning to YQAGKPDALTKLEQGEPFWTLEDE, the protein stability index is 3.54.

For the variant YQAGKPDALTKLEQGEPMWTLEDE, the protein stability index turned out to be 3.84.

For the variant YQAGKPDALTKLEQGEPAWTLEDE, the protein stability index came to 4.5.

Turning to YQAGKPDALTKLEQGEPGWTLEDE, the protein stability index is 4.83.

Regarding YQAGKPDALTKLEQGEPWWTLEDE, the protein stability index was determined as 3.59.

In the case of YQAGKPDALTKLEQGEPPWTLEDE, the protein stability index turned out to be 5.35.

For the variant YQAGKPDALTKLEQGEPYWTLEDE, the protein stability index turned out to be 3.95.

With YQAGKPDALTKLEQGEPEWTLEDE, the protein stability index was 5.49.

Turning to YQAGKPDALTKLEQGEPHWTLEDE, the protein stability index was 5.06.

Regarding YQAGKPDALTKLEQGEPSWTLEDE, the protein stability index is 5.32.

Consider YQAGKPDALTKLEQGEPDWTLEDE, for which the protein stability index worked out at 5.11.

Regarding YQAGKPDALTKLEQGEPRWTLEDE, the protein stability index stood at 4.96.

As to YQAGKPDALTKLEQGEPCWTLEDE, the protein stability index turned out to be 4.91.

YQAGKPDALTKLEQGEPIWTLEDE: the protein stability index is 3.53.

As to YQAGKPDALTKLEQGEPTWTLEDE, the protein stability index worked out at 5.06.

Regarding YQAGKPDALTKLEQGEPQWTLEDE, the protein stability index was determined as 5.19.
